B1: IR-099 antibody (antibody, V domains shown)
VH: DVQLVESGGGLVQPGGSRKLSCAASGFTFSRFGMHWVRQAPEKGLEWVAYISSGRSTIYYADTVKGRFTISRDNPKNTLFLQMTSLRSEDTAMYYCARGGGNYVGAMDYWGQGTSVTVSS
VL: DAVMTQTPLSLPVSLGDQASISCRSSQSLENSNGNTYLNWYLQKPGQSPQLLIYRVSNRFSGVLDRFSGSGSGTDFTLKISRVEAEDLGVYFCLQVTHVPPTFGGGTKLEIK
notes: Mouse monoclonal from a hybridoma
B2: IR-003 antibody (antibody, V domains shown)
VH: QVTLKESGPGILQPSQTLSLTCSFSGFSLSTSGMGVSWIRQPSGKGLEWLAHIYWDDDKRYNPSLKSRLTISKDTSSNQVFLKITSVDTADTATYYCARRGEVRRRGYYAMDYWGQGTSVTVSS
VL: DVVMTQTPLSLPVSLGDQASISCRSSQSLVHSNGNTYLHWYLQKPGQSPKLLIYKVSNRFSGVPDRFSGSGSGTDFTLKISRVEAEDLGVYFCSQSTHVPLTFGAGTKLELK
notes: Mouse monoclonal from a hybridoma (BALB/c); constant regions are not
B3: IR-103 antibody (antibody, V domains shown)
VH: DVQLVESGGGLVQPGGSRKLSCAASGFTFSSFGMHWVRQAPEKGLEWVAYISSGSSTIYYADTVKGRFTISRDNPKNTLFLQMTSLRSEDTAMYYCARSPLLRLQGLAYWGQGTLVTVSA
VL: DVLMTQTPLSLPVSLGDQASISCRSSQSIVHSNGNTYLEWYLQKPGQSPKLLIYKVSNRFSGVPDRFSGSGSGTDFTLKISRVEAEDLGVYYCFQGSHVPPTFGGGTKLEIK
notes: as for B1
B4: IR-130 antibody (antibody, V domains shown)
VH: EVKLVESGGGLVQPGGSLKLSCATSGFTFSDYYMYWVRQTPEKRLEWVAYISNGGGSTYYPDTVKGRFTISRDNAKNTLYLQMSRLKSEDTAMYYCARGTSYGSSLHYYAMDYWGQGTSVTVSS
VL: DVVMTQTPLSLPVSLGDQASISCRSSQSLVHSNGNTYLHWYLQKPGQSPKLLIYKVSNRFSGVPDRFSGSGSGTDFTLKISRVEAEDLGVYFCSQSTHVPLTFGAGTKLELK
notes: as for B1
B5: IR-091 antibody (antibody, V domains shown)
VH: QVTLKESGPGILKPSQTLSLTCSFSGFSLSTSGMGVGWIRQPSGKGLEWLAHIWWDDDKYYNPSLKSQLTISKDTSRNQVFLKITSVDTADTATYYCARRGLRRGDYFDYWGQGTTLTVSS
VL: DVLMTQTPLSLPVSLGDQASISCRSSQSIVHSNGNTYLEWYLQKPGQSPKLLIYKVSNRFSGVPDRFSGSGSGTDFTLKISRVEAEDLGVYYCFQGSHVPLTFGAGTKLELK
notes: as for B1
B6: IR-148 antibody (antibody, V domains shown)
VH: DVQLVESGGGLVQPGGSRKLSCAASGFTFSSFGMHWVRQAPEKGLEWVAYISSGSSTIYYADTVKGRFTISRDNPKNTLFLQMTSLRSEDTAMYYCARDYYGMDYWGQGTSVTVSS
VL: DVVMTQTPLSLPVSLGDQASISCRSSQSLVHSNGNTYLHWYLQKPGQSPKLLIYKVSNRFSGVPDRFSGSGSGTDFTLKISRVEAEDLGVYFCSQSTHVPLTFGAGTKLELK
notes: as for B1

In general, Kd refers to a measure of binding affinity in units of concentration. One may read the koff as the first-order rate constant of dissociation. As usually defined, the kon is the rate constant with which the complex forms. Higher therefore signals fast association.

This assay deals with T1, A beta 1-40 oligomer (synthetic A beta1-40, HCl form, 0.1 mg/ml in PBS, incubated at 37 degrees C for one … (UniProt P05067 672-711)).
T1 construct: domain: A beta 1-40; Non-fibrous assembly of many copies of the same peptide; also called A beta oligomer
The experiment in a line: SPR, Biacore 3000, A beta oligomer on CM5 chip, antibody as analyte. The method, then: The analysis was carried out by Surface Plasmon Resonance (SPR) using Biacore 3000 (GE Healthcare Sciences).
On the technique in general: SPR reads the build-up and loss of mass on a sensor chip optically.
Molecule B1 gave a dissociation constant Kd of 9.3 nM, an off-rate constant (koff) of 0.00252 s⁻¹ and an association rate constant (kon) of 271000 M⁻¹ s⁻¹.
The like results for B2 were, in that order, 24.5 nM, 0.00232 s⁻¹ and 94800 M⁻¹ s⁻¹.
For B3, in that order: 43.9 nM, 0.00571 s⁻¹ and 130000 M⁻¹ s⁻¹.
The like results for B4 were, in that order, 667 nM, 0.11 s⁻¹ and 165000 M⁻¹ s⁻¹.
In the case of B5, binding was characterised by a dissociation constant (Kd) of 7.37 nM, the dissociation rate constant (koff) is 0.00188 s⁻¹ and the kon turned out to be 255000 M⁻¹ s⁻¹.
The like results for B6 were, in that order, 38.6 nM, 0.000931 s⁻¹ and 24100 M⁻¹ s⁻¹.

(Values after patent US20120156193A1 (IMMUNAS PHARMA, published 2012).)
